Measurements published in the nanobody polyreactivity screen of Harvey et al. (2022).

Assay: yeast display, Sf9 membrane polyspecificity reagent, FACS + sequencing; frameworks hold sequencing errors
In short: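 A synthetic nanobody library was expressed on Saccharomyces cerevisiae BJ5465 by galactose induction for 36–48 hours. The library was stained for 1 hour at 4 °C with 10% biotinylated, detergent-solubilized Sf9 membrane reagent and enriched with streptavidin microbeads before FACS. Low and high (top ~1%) gates were set on anti-HA fluorescence for expression and streptavidin fluorescence for reagent binding, and each polyreactivity label reflects the gate of origin.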

| Sequence | polyreactivity (PSR sort gate) |
| --- | --- |
| QVQLVESGGGLVQAGGILRLSCASSGRIFTFYAMGWYRQAPGKERELVAAISSGGSTYYADSVKGLFTISRDNAKNTVYLQMNSLKPEDTAVYYCAAEPVWYADYDYWGQGTQVTVSS | low polyreactivity |
| QVQLVESGGGLVQAGGSLRLSCAASGSTFIFNAMGWYRQAPGKERELVAAISWRVGRTYYADSVKGRFTISRDNAKNTVYLQMNSLKPEDTAVYYCAAPKSSTGHYYSWGQGTQVTVSS | low polyreactivity |
| QVQLVESGGGLVQAGGSLRLSCAASGFTVNNNGMGWYIQAPGKERELVASISSRTTSTYYADSVKGRFTFSRDKAKNTDYFQTNSLKPEDTAVYYCAAQAWWDGEYDYWGQGTQVTVSS | high polyreactivity |
| QVLLQESGGGLVQAGGSLRLSCAASGTISTDIRMGWYRLAPGKEPEFVASIDGCSTTYYADSVKVRFTISRDNAKNTVYLQMNSVIPEDSAMYYCAAREATEFYLYYWGQGTQVTVSS | low polyreactivity |
| QVQLVESGGGLVQAGRSLRLSCAASGRTFVYYAMGWYRQAPGKERELVATISSSDSTNYADSVKGRFTISRDNAKNTVYLQMNSLKPEDTAVYYCAAGPKGGGYYDPFDYWGQGTQVTVSS | low polyreactivity |
| QVQLVESGGGLVQAGGSLRLSCAASGRIFGYNTMGWYRQAPGKERELVAAINSGGRTYYADSVKGRFPISRDNAKNTVYLQMNSLKPEDTAVYYCATTTYKRFYRAPTSKYDYWGQGTQVTVSS | high polyreactivity |
| QVQLVESGGGLVQAGGSLRLSCAASGSIFIGNTMGWYRQAPGKERELVATIRRSGSRTYYADSVKGRFTISRDNAKNTVYLQMNSLKPEDTAVYYCAADRLRNSGYKTIYDYWGQGTQVTVSS | low polyreactivity |
| QVQLVESGGGLVQAGGSLRLSCAASGRILWWYAMGWYRQAPRKEREFFAAITTSGGSTYYADSVKGRFTISRDNAKNTVYLQMTSLKPEDNAVYYCAADLFVRNLVYTYDYDYWGQGTQVTVSA | high polyreactivity |
| QVQLVESGGGLVQAGGSLRLSCAASGRIFFVYAMGWYRQAPGKERELVASITGGGSTNYADSVKGRFTISRDNAKNTVYLQMNSLKPEDTAVYYCGADIHSTRVFPEYPSGYDYWGQGTQVTVSS | low polyreactivity |
| QVQLVESGGGLVQAGGSLRLSCAASGFIFSWYAMGWYRQAPGKERELVAAISASGTSTYYADSVKGRFTISRDNAKNTVYLQMNSLKPEDTAVYYCAAEFVTEYLYGFVYEYDSWGQGTQVTVSS | low polyreactivity |
| QVQLVESGGGLVQAGGRLRLSCAASGISFDWYAMGWYRQAPGKERELVAAITVGASTYADSVKGRFTISRDNAKNTDYLQMNSLIPEDTAVYYCTFPVFVDYGFYTIGHDYWGQGTQVTVSS | low polyreactivity |
| QVQLVESGGGLVQAGGSLRISCAASGFIYTRYTMGWYRQAPGKERELVAVINSSGGSTYYADSVKGRFTISRDNAKNTVYLQMNSLKPEDTAVYYCNALSRYRIWSYGYWGPGTQVTVSS | high polyreactivity |
| QVQLVESGGGLVQAGGSLRLSCAASGFIFPLYTMGWYRQAPGKERELVAAITCSGGSTYYADSVKGGFTISRDNAKNTVYLQMNSLKPEDTAVYYCAKDYTYGMDWGQGTQVTVSS | low polyreactivity |
| QVQLVESAGGFVQAGGSLRLSCAASGRIYQQNGLRWYRQAPGKERELVAGINSGVGTNYADSVKGRFTISRDNAKNTVYLQMNSLKPEDTAVFYCAKSQPSYSGDRDYWGQGTQVTVSS | low polyreactivity |
| QVQLVESGVGLLQAGGSLRLSCAASGFIIVPYAMGWYIQAPGKERELVATITWRGDSTYYADSVKGRFTISRDNAKNTVYLQMNSLKPEDTAVYYCAKRVVRGKVDYWGQGTQVTVSS | low polyreactivity |
| QVQLVESGGGLVQAGGSLRLSCAASGFIFYGYAMGWYSQAPGKERELVAGISTGGSTNYADSVKGRFTISRDNAKNTVYLQMNSLKPEDTAVYYCAKRAYFYYGRYDYWGQGTQVTVSS | low polyreactivity |
| QVQLEESGGGLVQAGGSLRISCAASGRTFNYNAIGWYRQAPGKERELVAAITSGGRTNYADSVKGRFTISRDNAKNTVYLQMNSLKPEDTAVYYCATEYYRYRWVGAFRYPVYYWGQGTQVTVSS | low polyreactivity |
| QVQLVESGGGLVQAGGSLRLSCAASGSILGHYAMGWYRQAPGKERELVAAISSSGGSTYYADSVKGRFTISRDNAKNTVYLQMNSLKPEDTAVYYCAADRGRPFPRGTGYYYWGQGTQVTVSS | high polyreactivity |
| QVQLVESGGGLVQAGGSLRLSCAASGIISPFYAMGWYRQATGKERELVADISTGGTTTYADSVKGRFTISRDNAKNTVYLQLNSLKPEDTAVYYCNAEVSLTYYWIVWASYDYWGQGTQVTVSS | low polyreactivity |
| QVQLVESGGGLVQAGGSLRLSCAASGRIFFNYAMGWYRQAPGKERELVAAIRGGGSTYADSVKGRFTISCDNAKNTVYLQMNSLKPEDTAVYYCAARYSGSPYHTRRYYYWGQGTQVTVSS | high polyreactivity |
| QVQLVESGGGLVQAGGSLRLICAASGRTFSGYAMGWYRPAPGKERELVAAINWSTGSTYYADSVKGRFTISRDNAQNTVYLQMNSLKPEDTAVYYCAAGYYYYGNGRIVQYEYWGQGTQVTVSS | high polyreactivity |
| QVQLVESGGGLVQAGGSLRLSCAASGYTFYSNAMGSYRQAPGKERELVASIRSRGRSTYYADSVKGRFTISRDNAKNTVYFQMNSLKPEDTAVYYCAALPNTPAVYAYDYWGQGTQVTVSS | low polyreactivity |

| Sequence | polyreactivity (PSR sort gate) |
| --- | --- |
| QVQLVESGGGLVQAGGSLRLSCAASGSIFGKYTMGWYRQAPGKEREFVAAITSVGSTNYADSVKVRFTISRDNAKNTVYLQMNSLKPVDTAVYYCAADTIGYHYWYDYWGQGTQVTVSS | low polyreactivity |
| QVQLVESGGGLDQAGGSLRLSCAASGYIFGSYAMGWYRQAPGKERELVAAITISGGRTYYADSVKGRFTISRDNAKNTVYLQMNSLLPEDTAVYYCAKDGERSRNGRIHYDYWGQGTKVTVSS | low polyreactivity |
| QVQIVESGGGLVQAGGSLRLTCAASGSILWYNTMGWYRQAPGKERELVAAIRTSGSRTYYADSVKGRFTISRDNAKNTVYVQMNSLKPEDTAVYYCAAERGSQRVRSGYWGQGTQVTVSS | high polyreactivity |
| QVQLVESGGGLVQAGGSLRLSCAASGGTFPYYAMGWYRQAPGKERELVAAISSSGGRTYYADSVKGRFTISRDNAKNTVYLQMNSLKPEDTAVYYCAKDTYGFAANRPAGDGYWGQGTQVTVSS | high polyreactivity |
| QVQLVESGGGLVQAGGSLRLSCAASGVIFGRYAMGWYREAPGKERELVAAISWGGGSTRYADSVKGRFTISRDNAKNTVYLQMNSLKPEDTAVYYCAAYRYWGRTSYSYDYWGQGTQVTVSS | high polyreactivity |
| QVQLVESGGGLVQAGGSLRLSCAASGRTFVAKTMGWYRQAPGKERELVAAISSSGGSTYYADSVKGRFTISRDNAKNTVYLQMNSLKPEDTAVYYCAKTHSGWWRYGYWGQGTQVTVSS | high polyreactivity |
| QVQLVESGGGLVQAGGSFRLSSAPSGSIFVVYAMGGYIQAPGKERELVAAITSGGSTYYADSVKGRFTISRDNAKNTVYLQMNSLKPEDTAVYYCATTYRDGVYELSTFDYWGQGTQVTVSS | low polyreactivity |
| QVQLVESGGGLVQAGGSLRLSSAASGFTFDCNTMGWYRQAPGKERELVALISSTGGRTYYADSVQGRFSISRDNAKNTVYLQMNSLKPEDTAGSYCNKRRRNPVGYDYWGLGTQVTVSS | high polyreactivity |
| QVQLVESGGGLVQAGGSIRLTCAASGGTFGRNAMGWYRQAPGKERELVATITRRGGSTYYADSVKGRFTISRDNAKTSVYLQMNSLKAEDTAVYYCAARDVYRGGLFDYWGQGTQVTVSS | high polyreactivity |
| QVQLVESGGGLVQAGGSLRLSCAASGSTFTRNAMGWYRQAPGKERELVAAISSSGGRTYYADSVKGRFTISRDNAKNTVYLQMNSLKPEDTAVYYCAAGIRTSAGYDYWGQGTQVTVSS | high polyreactivity |
| QVQLVESGGGLVQAGGSLRLSCAASGITFVRNAMGWYRQAPGKEREFVAAISGSGVSTYADSVKGRFTISRDNAKNTVYLQMNSLKPEDTAVYYCARDFPWSYAWYDYWGQGTQVTVSS | low polyreactivity |
| QVQLVESGGGLVQAGGSLRLSCAASGSTFDQYGMGWYRQAPGKDRELVAAITSVGGTNYADSVKGRFTISRDNAKKTVYLQMNSLKPEDTAVYYCARRYPKNHKAPGRMDYWGQGTQVTVSS | low polyreactivity |
| QVQLVESGGGLVQAGGSLRLSCAASGSTLHEYVMGWYRQAPGKGRELVAAISRRGDSTYYADSVKGRFTISRDNAKNTVYLQMNSLKPEDTAVYYCAARWYWYWSSWDYYSWGQGTQVTVSS | low polyreactivity |
| QVQLVESGGGLVQAGGSLRLSCAASGIIFYYYAMGWYRQAPGKERELVAAIRSGGSTNYADSVKGRFTISRDNAKNTVYLQMNSLKPEDTAVYYCATRHDYLRAHYGYGSWGQGTQVTVSS | low polyreactivity |
| QVQLVESGGGLVQEGGSLRLSCAASGFISGFYGMGWYRQAPRKEREFVAAIEFIDGDTYYADSVKGRFTISRDNAKNTVYLQMNSLKPEDTAVYYCAADGSFWQFDYWGQGTQVTVSS | low polyreactivity |
| QVQLVESGGGLVQAGGSLRLSCAASGSTSRSYTMGWYRQAPGKEREFVASIRWSGGRTYNADSVKGRFTISRDNAKNTVYLQMNSLKPEDTAVYYCNADYYRLRFRLGWYDYWGQGTQVTVSS | high polyreactivity |
| QVQLVESGGGLVQAGGSLRLRCAASGSTFASYAMGGYRQAPGKERELVAAITRSGGSTYYADSVKGRFTISRVKAKNTVYLQMNSLKPEDTAVYYCARRAVYGIFDYWGQGTQVTVSS | high polyreactivity |
| QVQLVESGGGLVQAGGSLRLSCAASGRIYDDYAMGWYRQAPGKERELVAAISSSGGSTYYADSVKGRFTISRDNAKNTVYLQMNSLKPEDTAVYYCARYPPGRRRYEYWGQGTQVTVSS | high polyreactivity |
| QVQLVESGGGLVQAGGSLRLSCAASGSIFVTYAMGWYRQAPGKERELVAVITWGGGSTYYADSVKGRFTISRDNAKNTVYLQMNSLKPEDTAVYYCAKDSYYYRRDVTVDYWGQGTQVTVSS | low polyreactivity |
| QVQVVESGGGLVQAGGSLRLSCAASGLTYSYYTMGWYRQAPGKERELVAAITSSSGRTYYADSVKGRITISRDNAKNTVYLQMNSLKPEDTAVYYCAARWSPYDYWGQGTQVTVSS | low polyreactivity |
| QVQLVESGGGLVQAGGSLRLSCAASGRIFDWYVMGWYRQAPGKERELVAAINSGVSTKYADSVKGRFTISRDNAKNTVYLQMNSLKPEDTAVYYCAAQSFSDYRRTGRKSSYYYWGQGTQVTVSS | low polyreactivity |
